{"source": "IntAct's records for PubMed 21620138", "biological_target": "hif1a_human HIF1A (UniProt Q16665)", "sequence (Q16665 whole entry, looked up)": "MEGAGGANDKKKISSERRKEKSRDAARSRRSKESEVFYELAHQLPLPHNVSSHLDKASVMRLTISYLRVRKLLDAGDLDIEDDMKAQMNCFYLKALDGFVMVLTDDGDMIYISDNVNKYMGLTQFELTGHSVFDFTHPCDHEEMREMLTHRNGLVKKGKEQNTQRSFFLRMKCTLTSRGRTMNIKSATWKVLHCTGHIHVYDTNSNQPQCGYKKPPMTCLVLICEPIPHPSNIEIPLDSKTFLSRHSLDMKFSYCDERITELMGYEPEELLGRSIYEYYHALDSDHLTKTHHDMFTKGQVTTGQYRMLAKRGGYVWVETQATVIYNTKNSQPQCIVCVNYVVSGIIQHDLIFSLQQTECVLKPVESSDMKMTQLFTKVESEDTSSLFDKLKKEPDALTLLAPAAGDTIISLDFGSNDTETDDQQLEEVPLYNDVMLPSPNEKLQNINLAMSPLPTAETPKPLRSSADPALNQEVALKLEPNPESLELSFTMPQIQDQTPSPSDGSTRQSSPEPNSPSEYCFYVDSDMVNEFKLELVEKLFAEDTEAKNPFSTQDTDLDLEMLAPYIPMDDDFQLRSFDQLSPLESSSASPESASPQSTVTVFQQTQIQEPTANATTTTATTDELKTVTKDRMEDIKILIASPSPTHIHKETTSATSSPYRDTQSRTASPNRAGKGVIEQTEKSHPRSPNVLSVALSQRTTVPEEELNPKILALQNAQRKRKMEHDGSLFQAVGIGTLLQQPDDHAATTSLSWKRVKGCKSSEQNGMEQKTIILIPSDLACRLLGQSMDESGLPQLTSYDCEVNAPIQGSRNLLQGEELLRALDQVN"}
{"substance": "Pyruvate kinase PKM (Homo sapiens), P14618-1 P403A;P408A", "values": [{"measurement": "effect of a mutation on the interaction", "value": "decreasing interaction strength"}]}
